The target in test [1] is T1, Human ADAM9 protein (ACROBiosystems, Cat. No. AD9-H52H7) (human, UniProt Q13443 29-697).
T1 construct: Bought protein; also called Human ADAM-His protein; human ADAM9 antigen; not shown: His tag
T1 sequence (looked up): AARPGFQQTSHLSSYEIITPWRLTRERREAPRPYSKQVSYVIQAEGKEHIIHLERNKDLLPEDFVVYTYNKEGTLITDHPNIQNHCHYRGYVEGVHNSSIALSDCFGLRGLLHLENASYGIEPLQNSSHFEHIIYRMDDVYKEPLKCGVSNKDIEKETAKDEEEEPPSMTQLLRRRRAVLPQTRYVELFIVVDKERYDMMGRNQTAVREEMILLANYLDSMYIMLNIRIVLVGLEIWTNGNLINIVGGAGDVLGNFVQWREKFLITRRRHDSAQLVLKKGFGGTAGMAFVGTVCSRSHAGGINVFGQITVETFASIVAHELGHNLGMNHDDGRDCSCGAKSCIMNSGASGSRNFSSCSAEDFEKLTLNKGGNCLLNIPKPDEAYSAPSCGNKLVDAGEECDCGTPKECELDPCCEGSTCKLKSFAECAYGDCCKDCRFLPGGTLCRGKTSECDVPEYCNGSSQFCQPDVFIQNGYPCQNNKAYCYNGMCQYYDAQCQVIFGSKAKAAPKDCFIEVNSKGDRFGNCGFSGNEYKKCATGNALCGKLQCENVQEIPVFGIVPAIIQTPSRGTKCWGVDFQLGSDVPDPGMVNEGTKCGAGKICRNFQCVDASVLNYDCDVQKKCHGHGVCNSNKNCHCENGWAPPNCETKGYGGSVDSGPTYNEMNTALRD
Nature of the test: indirect ELISA, human ADAM9-His coated at 1 ug/mL. Here is the method:
The plate was washed three times with PBST (PBS (pH 7.4) containing 0.05% Tween-20), followed by addition of 200 μL/well of blocking buffer containing 1% bovine serum albumin (BSA) diluted in PBST, and incubated at 37° C. for 1 hour for blocking. After blocking, the blocking buffer was discarded, and the plate was washed once with PBST buffer. The test antibody was diluted in PBST containing 1% BSA with a 3-fold serial dilution starting at 15 μg/mL across 11 doses, and added to the ELISA plate at 100 μL/well, followed by incubation at 37° C. for 1 hour. After incubation, the plate was washed three times with PBST, followed by addition of 100 μL/well of HRP-labeled goat anti-human secondary antibody (Rockland, Cat. No. 609-103-123) diluted in PBST containing 1% BSA, and incubated at room temperature for 45 minutes. The plate was washed six times with PBST, followed by addition of 100 μL/well of TMB chromogenic substrate (Suzhou Yacoo Chemical Reagent Co., Ltd., Cat. No. S0025), and incubated at room temperature in the dark for 10 minutes. The reaction was terminated by adding 50 μL/well of 1 M HCl, and the absorbance was measured at 450 nm using a microplate reader (Thermo, Ascent) for data analysis.

The target in test [2] is T1, Human ADAM9 protein (ACROBiosystems, …). Nature of the test: SPR (Biacore 8K), antibody captured by anti-human Fc on CM5, ADAM9 as analyte. Here is the method: Chip preparation: The mouse anti-human IgG (Fc) antibody (Cat. No. 29234600, Cytiva) was diluted to 25 μg/mL in immobilization buffer (10 mM sodium acetate, pH 5.0), specifically by adding 950 μL of the immobilization buffer to 50 μL of the mouse anti-human IgG (Fc) antibody. The dilution was used for immobilization in eight channels. First, the surface of the CM5 chip was activated with 400 mM EDC and 100 mM NHS at a flow rate of 10 μL/min for 420 seconds. Then, 25 μg/mL of the mouse anti-human IgG (Fc) antibody was injected into the test channels at a flow rate of 10 μL/min for approximately 360 seconds, with the level of immobilization at approximately 7000 to 14000 RU. Finally, the chip was blocked with 1 M ethanolamine at a flow rate of 10 μL/min for 420 seconds. The reference channels underwent the same procedures as the test channels.
Ligand capture: Antibodies Ab10, Ab15, Ab16, and hMAB-A (2I.2) were diluted to 4 μg/mL in running buffer (containing 10 mM N-(2-hydroxyethyl)piperazine-N-2-ethanesulfonic acid (HEPES), 150 mM sodium chloride (NaCl), 3 mM ethylenediaminetetraacetic acid (EDTA), 0.005% Tween-20, pH adjusted to 7.4) and injected into the test channels for human IgG (Fc) capture at a flow rate of 10 μL/min at approximately 200 RU. No ligand capture was performed in the reference channels.
Analyte multi-cycle analysis: Human and cynomolgus ADAM9 proteins (human ADAM9 protein purchased from ACRO, Cat. No. AD9-H52H7; monkey ADAM9 protein purchased from ACRO, Cat. No. AD9-C52H7) were diluted 2-fold in running buffer (Table 10). The diluted human or cynomolgus ADAM9 protein was sequentially injected into the test channels and the reference channels at a flow rate of 30 μL/min, with corresponding association and dissociation times. Both the association and dissociation steps were performed in the running buffer. After each concentration analysis, the chip was regenerated with 3 M magnesium chloride at a flow rate of 20 μL/min for 30 seconds to wash away the ligand and any undissociated analyte. For the next concentration analysis, the test channels required re-capture of the same amount of ligand.
(In general: In SPR one partner is held on a chip, and binding of the other changes the refractive index at the surface.)

B1: Ab15 (antibody, human IgG1, kappa, V domains shown)
VH: QVQLQQPGAELKKPGASVKVSCKASGFTFPLYWMNWVRQRPGRGLEWIGRIIPIFGHTKYNEKFKDRATMTADESSSTAYMELSSLTSEDSAVYYCARGGYYYYPREGFLDYWGQGTSVTVSS
VL: DIVMTQSPDSLSVSPGERATINCRSSQSVDYSGDSYMNWYQQKPGQSPRLLIYAASDRESGVPDRFSGSGSGTDFTLKISNVEEEDAATYYCQQSREDPFTFGQGTRVEIKR
notes: Humanized anti-ADAM9 IgG1/kappa; also called Ab15-V (variable regions)
What is called EC50 is the concentration that produces a half-maximal response. Usually Kd stands for the free concentration of one partner at which half of the binding sites on the other are occupied at equilibrium, for simple one-to-one binding. Lower therefore signals a tighter complex. A word on the koff: it is the first-order rate constant of dissociation. Higher therefore signals fast dissociation. As a reminder, the kon is the rate constant with which the complex forms. Read a low kon as slower complex formation. As for B1, in test [1], the concentration for a half-maximal effect (EC50) worked out at 0.049 nM and the “Top (OD450)” value worked out at 3.28 OD450. Further, in test [2], the affinity, expressed as Kd, was 4.03 nM; the off-rate constant (koff) is 0.000697 s⁻¹; the on-rate constant (kon) was determined as 173000 M⁻¹ s⁻¹.

B2: Ab16 (antibody, human IgG1, kappa, V domains shown)
VH: QVQLQQPGTEVVKPGASVKLSCKASGFTFPLYWMHWVRQRPGRGLEWIGRIIPIFGHTKYNEKFKNKATLTADESSSTAYMELRSLTSDDSAVYYCARGGYYYYPREGFLDYWGQGTSVTVSS
VL: DIVMTQSPASLSVSPGERASISCRSSQSVDYSGDSYMNWYQQKPGQSPRLLIYAASDRESGVPDRFSGSGSGTDFTLKISRVEEEDAGTYYCQQSREDPFTFGQGTKVDIKR
notes: Humanized anti-ADAM9 IgG1/kappa; also called Ab16-V (variable regions)
As for B2, in test [1], the response was half-maximal at 0.042 nM (EC50) and the “Top (OD450)” value was 3.36 OD450. Besides, in test [2], the Kd came out at 5.01 nM, the koff stood at 0.000816 s⁻¹ and the kon is 163000 M⁻¹ s⁻¹.
